Measured values reported in PMC7065593 (Nature, 2019).

Biological target: Gαi1 subunit (human, UniProt P63096)
Assay: cryo-EM structure

binding result: binds
B1: hNTSR1(∆ICL3; residues 20-418, A85L, ∆282-291) (receptor)
chain: QRAQAGLEEALLAPGFGNASGNASERVLAAPSSELDVNTDIYSKVLVTAVYLALFVVGTVGNTVTLFTLARKKSLQSLQSTVHYHLGSLALSDLLTLLLAMPVELYNFIWVHHPWAFGDAGCRGYYFLRDACTYATALNVASLSVERYLAICHPFKAKTLMSRSRTKKFISAIWLASALLAVPMLFTMGEQNRSADGQHAGGLVCTPTIHTATVKVVIQVNTFMSFIFPMVVISVLNTIIANKLTVMVRQAAEQGQVCTVGGPGRVQALRHGVRVLRAVVIAFVVCWLPYHVRRLMFCYISDEQWTPFLYDFYHYFYMVTNALFYVSSTINPILYNLVSANFRHIFLATLACLCPVWRRRRKRPAFSRKADSVSSNHTLSSNATRETLY
